# Measured values reported in patent US9738880B2, “Lysosomal protein targeting sequence and therapeutic applications of same” (Children's Hospital Medical Center, priority 2013, dated 2017).
# Substitutions are numbered along the chain they refer to. Numbers in names are those of the source.
# T1: ldLIMP2 (Homo sapiens, UniProt Q14108)
# T1 construct: Purified luminal domain LIMP-2 (1d-LIMP2) was custom made (Sino Biological Inc., PRC.); purchased Sino Biological Inc
# T1 sequence (Q14108 28-433 limits assumed): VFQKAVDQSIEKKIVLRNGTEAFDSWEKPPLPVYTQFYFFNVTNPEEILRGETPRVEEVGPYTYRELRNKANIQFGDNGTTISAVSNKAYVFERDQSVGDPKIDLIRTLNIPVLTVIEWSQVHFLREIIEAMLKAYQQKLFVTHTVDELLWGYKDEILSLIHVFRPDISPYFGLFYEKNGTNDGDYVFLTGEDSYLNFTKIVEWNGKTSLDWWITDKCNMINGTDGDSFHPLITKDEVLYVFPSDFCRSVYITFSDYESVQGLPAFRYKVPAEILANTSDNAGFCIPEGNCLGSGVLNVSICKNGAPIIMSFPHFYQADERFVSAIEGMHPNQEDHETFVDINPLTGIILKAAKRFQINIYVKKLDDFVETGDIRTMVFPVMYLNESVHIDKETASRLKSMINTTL
# B1: D399A: human GCase variant with D399A (ASPIIV sequence) (protein, UniProt P04062 40-536, looked up, variant D399A)
# Lysosomal acid …: ARPCIPKSFGYSSVVCVCNATYCDSFDPPTFPALGTFSRYESTRSGRRMELSMGPIQANHTGTGLLLTLQPEQKFQKVKGFGGAMTDAAALNILALSPPAQNLLLKSYFSEEGIGYNIIRVPMASCDFSIRTYTYADTPDDFQLHNFSLPEEDTKLKIPLIHRALQLAQRPVSLLASPWTSPTWLKTNGAVNGKGSLKGQPGDIYHQTWARYFVKFLDAYAEHKLQFWAVTAENEPSAGLLSGYPFQCLGFTPEHQRDFIARDLGPTLANSTHHNVRLLMLDDQRLLLPHWAKVVLTDPEAAKYVHGIAVHWYLDFLAPAKATLGETHRLFPNTMLFASEACVGSKFWEQSVRLGSWDRGMQYSHSIITNLLYHVVGWTDWNLALNPEGGPNWVRNFVASPIIVDITKDTFYKQPMFYHLGHFSKFIPEGSQRVGLVASQKNDLDAVALMHPDGSAVVVVLNRSSKDVPLTIKDPAVGFLETISPGYSIHTYLWRRQ
# B2: I402A/I403A: human GCase double mutant I402A + I403A (DSPAAV sequence) (protein)
# chain: B1 Lysosomal acid … with A399D, I402A, I403A
# B3: Mouse WT: mouse wild type GCase (protein, UniProt P17439 20-515, looked up)
# Lysosomal acid …: AQPCIPKSFGYSSVVCVCNASYCDSLDPVTLPALGTFSRYESTRRGRRMELSVGAIQANRTGTGLLLTLQPEKKFQKVKGFGGAMTDATALNILALSPPTQKLLLRSYFSTNGIEYNIIRVPMASCDFSIRVYTYADTPNDFQLSNFSLPEEDTKLKIPLIHQALKMSSRPISLFASPWTSPTWLKTNGRVNGKGSLKGQPGDIFHQTWANYFVKFLDAYAKYGLRFWAVTAENEPTAGLFTGYPFQCLGFTPEHQRDFISRDLGPALANSSHDVKLLMLDDQRLLLPRWAEVVLSDPEAAKYVHGIAVHWYMDFLAPAKATLGETHRLFPNTMLFASEACVGSKFWEQSVRLGSWDRGMQYSHSIITNLLYHVTGWTDWNLALNPEGGPNWVRNFVDSPIIVDIPKDAFYKQPMFYHLGHFSKFIPEGSQRVALVASESTDLETVALLRPDGSAVVVVLNRSSEDVPLTISDPDLGFLETVSPGYSIHTYLWRRQ
# What was measured:
# ldLIMP2 = molecular target: T1, ldLIMP2; assay: Fluorescence polarization binding of DSPIIV GCase peptides to ldLIMP-2; conditions: for binding to ldLIMP2 by change in fluorescence polarization (δmP), in words: ldLIMP2 fixed at 50 nM, peptide up to 250 nM, FIG. 7A
# Procedure: FIG. 7A-FIG. 7C: Binding and competition of fluorescent labeled or unlabeled DSPIIV (SEQ ID NO 15) GCase peptides to ldLIMP2. The change (δmP) in fluorescence polarization is plotted on the ordinate and the increasing concentrations of the various peptides are on the abscissa. FIG. 7A depicts saturation kinetics under conditions in which the concentration of ldLIMP2 (50 nM) was fixed. […] FIG. 7B depicts a similar study using unlabeled peptides as competitors. […] Each of the unlabeled peptides “competed” with the labeled peptides in the expected ratios. FIG. 7C depicts a competition study in which labeled (WT*) and unlabeled (WT) peptides were used in complementary competition studies.
# FIG. 9: Effect pH on binding WT and alanine substituted DSPIIV (SEQ ID NO 15) peptides to ldLIMP2. […] In comparison, incremental decreases were evident in ldLIMP2 binding at pH=6.8, the approximate pH of the ER/cis-Golgi, as follows: the triple mutant (ASPAAV) having the lowest binding (<10% of WT), the DSPAIV (SEQ ID NO 17) (I402A) and DSPIAV (SEQ ID NO 18) (I403A) mutants being intermediate (˜40-50% of WT), and ASPIIV (SEQ ID NO 16) (D399A) having the least change (˜50-60% of WT), relative to WT.
# FIG. 12: Stoichiometry between ldLIMP2 and DSPIIV (SEQ ID NO 15). The peptide concentration giving 50% of maximal binding to ldLIMP2 (ordinate) and the concentration of ldLIMP2 (abscissa) have a 1:1 ratio.
# Fluorescence Polarization: The DSPIIV (SEQ ID NO 15) and its mutants, and DDQRLLL (SEQ ID NO 14) peptides (FITC labeled or non-labeled) were synthesized (American Peptide Co., Vista, Calif.). Lyophilized peptides were solubilized in acetonitrile and then were diluted at least 10,000-fold into the reactions for fluorescence polarization assessments. The reactions were done at least in duplicate at various peptide and LIMP-2 concentrations (SpectraMax M5, Molecular Device). Fluorescence polarization data were collected and analyzed with SoftMax Pro 5.0 software. Reaction mixtures contained 100 mM phosphate, pH 6.8 and 1 mM DTT.
# Gba1−/− cells = assay: Proportion of GCase protein in cells and media; type: cell-based, mouse; conditions: for Total GCase: cellular + media; for Total GCase / Cellular GCase / Media GCase: mean ± SD, n = 3; for Cellular GCase / Media GCase: total ng
# From the text: (§1) FIG. 11A-FIG. 11C: Secretion and retention of GCase with alanine variants in the TDK (FIG. 11A) or DSPIIV (SEQ ID NO 15) (FIG. 11B and FIG. 11C) sequences. FIG. 11A depicts activities in the media of Gba1−/− fibroblasts following transient transfections of each of the specified alanine substituted GCases in the TDK region. […] FIG. 11B depicts in the Left Panel: Activities in the media following transient transfections of various DSPIIV (SEQ ID NO 15) alanine substituted GCases and the % of GCase secreted. The latter was calculated as {ng GCase (in media)/[ng GCase (in media)+ng (GCase in lysates)]}×100 (also see Table 2). […] The transfections alone (Null+lipo) had no effect. […] FIG. 11C deicts in cellular lysate GCase activities from the various alanine substituted GCases in the DSPIIV (SEQ ID NO 15) sequence as indicated. […] The doubly alanine substituted GCase had little intracellular activity, i.e., nearly all the GCase was secreted into the media.
# [1] = system: Gba1 null/null mouse fibroblasts; assay: Immunofluorescence co-localization of expressed GCase constructs (lysosome vs ER/Golgi); type: cell-based; conditions: for Pearson Indices for co-localization to the lysosome, in words: DSPIIV variants, FIG. 10B; for co-localization to / retention in the ER/Golgi, in words: calnexin or calreticulin; for localization of GCase DSPIIV variants to the lysosome (Lamp1 / LIMP-2 co-localization), in words: transient transfection, FIG. 10A
# From the text: Immunofluorescence studies (IF): Mouse Gba1 null/null were used for the host cells for all transfection experiments. pCMV-AC-GFP Mammalian cell expression vector was used for expression of various GCases that included the TKD region (amino acids 407, 408 and 409) or the DSPIIV (SEQ ID NO 15) region (amino acids 399-404). Direct-labeled first antibodies were applied for IF detection; including anti-human GCase, -Calreticulin, -calnexin, -LIMP2, and -Lamp1. Lysotracker and ER tracker (Invitrogen) were also used as indicated. Analyses were done with a Zeiss AxioVert 200M with ApoTome. Co-localization analyses to obtain Pearson Indices were conducted using a module in the Axiovision 4.8 software.
# Initial studies to localize the targeting peptide were conducted with GCase-GFP fusion constructs that had COOH-terminal deletions of GCase (FIG. 1). The constructs are designated as GCase-XX or XXX where the Xs represent the number of GCase amino acids deleted from the COOH-terminus. These constructs were transfected into and expressed in Gba1 null/null mouse fibroblasts using the CMV promoter (pCMV-AC-GFP or YFP) Immunofluorescence analyses using anti-human GCase IgG (green) and Lysotracker (Red) were used for colocalization of GCase to the lysosome (Red) or GCase (green) and Calreticulin or Calnexin (Red) for colocalization to the ER or Golgi (FIG. 2). […] Since LIMP-2 is the receptor for targeting of GCase to the lysosome, our working hypothesis was that the peptide sequence for binding of GCase to LIMP-2 was located within amino acids 347-422.
# Gba1−/− fibroblasts = assay: GCase activity in media and cell lysates after transient transfection (secretion and retention); type: cell-based, mouse; conditions: cell lysates; FIG. 11C
# From the text: as §1
# Enzyme Assays: Cell pellets were homogenized in 0.25% Na-taurocholate and 0.25% Triton X-100. GCase activities were determined fluorometrically with 4 mM 4MU-Glc in 0.2M/0.1M citric-phosphate, pH 5.6 (18, 54)
Molecule,"binding to ldLIMP2 by change in fluorescence polarization (δmP), in words (ldLIMP2)",Total GCase (Gba1−/− cells) [ng],Cellular GCase (Gba1−/− cells) [ng],Media GCase (Gba1−/− cells) [ng],other results
DSPAIV,did not show saturation up to 250 nM,,,,
DSPIAV,did not show saturation up to 250 nM,,,,
ASPIIV,little binding,,,,"decrease of binding to ldLIMP-2 (ldLIMP2; pH 6.8, FIG. 9): 30-40%; ldLIMP2 binding relative to WT peptide (ldLIMP2; pH 6.8, FIG. 9): 50-60 % of WT"
ASPAAV [triple alanine mutant of the DSPIIV peptide],background changes,,,,"ldLIMP2 binding relative to WT peptide (ldLIMP2; pH 6.8, FIG. 9): < 10 % of WT"
B1,,50 ± 4,32 ± 4,18 ± 2,"Pearson Indices for co-localization to the lysosome, in words [1]: little co-localization to the lysosome; co-localization to / retention in the ER/Golgi, in words [1]: significant retention in the ER/Golgi; localization of GCase DSPIIV variants to the lysosome (Lamp1 / LIMP-2 co-localization), in words [1]: Essentially identical results"
B2,,24 ± 4,4 ± 1,20 ± 3,"GCase activity in cell lysates relative to WT (Gba1−/− fibroblasts): < 5 % of WT; Pearson Indices for co-localization to the lysosome, in words [1]: little co-localization to the lysosome; co-localization to / retention in the ER/Golgi, in words [1]: significant retention in the ER/Golgi; localization of GCase DSPIIV variants to the lysosome (Lamp1 / LIMP-2 co-localization), in words [1]: Essentially identical results"
B3,,64 ± 7,64 ± 7,0,% Secreted (Gba1−/− cells; ng GCase in media / (ng in media + ng in lysates) × 100): 0%
